Source: the RNAGym collection of RNA variant scans (doi:10.7554/elife.80360)

B1: HDV Ribozyme (parent)
chain: GGCCGGCAUGGUCCCAGCCUCCUCGCUGGCGCCGGCUGGGCAACAUUCCGAGGGGACCGUCCCCUCGGUAAUGGCGAAUGGGACCCA

Variants of: B1
Experiment: self-cleavage, relative activity (ratio to wild type); higher = more cleavage; co-transcriptional

Variant	self-cleavage
U20G A70U	0.196
U20G A70G	0.312
U20G C58U	0.237
U20G C58G	0.266
C21A C48A	0.157
U20G G50A	0.151
U20G G81C	0.095
C21A C75G	0.0346
C21A C61G	0.0997
C21G C63A	0.106
C21G C63U	0.0339
C21G C63G	0.0378
C21A C44U	0.0346
U20G C30A	0.0378
C21A G38C	0.185
C21G C36G	0
C21G C36U	0.0326
C21G C36A	0.0405
U20C C86A	0.158
C21G C75A	0.0415
C21G C75U	0.0378
C21A U79C	0.111
C21A G34C	0
C21A U69A	0.175

Variant	self-cleavage
U20G U65G	0.437
U20G U60G	0.0831
U20C G74C	0.107
C21G A78U	0.196
U20G U72C	0
C21G C66U	0.0475
U20C G52U	0.145
C21A G55C	0.13
U20C U23A	0.115
U20C G31U	0.141
U20C G55C	0.0791
U20G C49A	0.308
U20G C49G	0.361
U20G C49U	0.185
C21A G80C	0.0496
C21A G40C	0.111
C21A A77C	0
C21A A77U	0
U20G C63G	0.104
C21G A42C	0.166
C21A A78U	0.0573
C21A A78C	0
C21A A78G	0.189
U20C U79C	0.0845

Variant	self-cleavage
U20C G67U	0.175
U20G G68A	0.0378
U20G G53A	0.148
C21G C85U	0
U20G C66A	0.249
C21A U72A	0
C21A A71C	0.0692
U20G C33U	0.0852
C21G G25A	0.185
U20G A42C	0.0875
C21A G81U	0.0665
C21A A83U	0.0739
U20G C26U	0.256
U20C U69G	0.0639
C21A A45C	0.0652
C21A A45G	0.0615
U20C U37C	0.252
C21A G59A	0.0936
C21A G59U	0.0545
U20G G52U	0.332
U20C G80U	0.0625
C21A G74U	0.0712
C21A G74C	0.126
C21A U46A	0.322

Variant	self-cleavage
C21G C62G	0.0755
C21A G28U	0.196
U20G G40U	0.131
U20G G40C	0.0462
U20G U46C	0.185
U20G G82C	0.246
U20G U37C	0.237
U20C G25A	0.458
C21A A43U	0.0944
U20G A51U	0.332
C21A C26U	0
U20C G28U	0.119
U20C G28A	0.147
C21G A77U	0.0426
U20G A56U	0.178
C21A G53A	0.0791
U20G A43G	0.104
U20C G34U	0.086
C21G A45G	0.185
U20C G54C	0.0475
U20G C62U	0.19
U20G C62A	0.312
C21A A87G	0.0496
C21A A87U	0.0915

Variant	self-cleavage
C21G C57G	0.0437
C21G C32U	0.128
C21A C85G	0
C21A C85A	0
C21A C85U	0.157
U20G C84G	0.119
C21A U23A	0.0369
U20C G59A	0.208
U20C U72C	0.0755
U20C U72A	0.123
U20C U47G	0
C21A G67A	0.0712
U20C G39A	0
U20C C66A	0.135
U20C C66U	0.0831
U20G G74C	0.0489
C21G C48U	0.0707
C21G A83G	0.0987
C21A C36U	0.0339
C21A C36G	0.0627
C21A G50U	0.0332
C21A G50C	0.0639
C21G A70G	0.185
C21G A70C	0.225

Variant	self-cleavage
C21A U27C	0.0519
C21A U27A	0.0504
U20G C36A	0
U20G G35U	0
U20G G35A	0.107
C21A G54C	0.0804
C21A C41U	0.181
C21A C41G	0
C21A C22U	0.138
U20C C84G	0.0978
U20C C84A	0.166
C21A G52A	0.132
U20G C86U	0.214
C21A C58G	0.128
U20C G29U	0.0519
U20C U60G	0.199
U20C G35U	0.0978
C21G C41G	0.095
C21A U37G	0.208
U20G C61U	0.131
C21A A42U	0.208
U20G U23A	0
U20G U23C	0
U20G G25A	0

Variant	self-cleavage
U20G G80A	0.0831
U20G G80U	0.053
U20G A87U	0.158
C21G C30A	0
C21A G35U	0.0744
C21A G25C	0
C21A G25A	0.116
C21A C57A	0.102
U20G A78G	0
C21A A70C	0.0426
U20G U47A	0.0831
C21G G28U	0.0287
U20G A45C	0.158
U20G A71G	0.196
U20G A71C	0
C21A G39U	0.945
U20G G29C	0
U20G G29U	0
C21G C64A	0.131
C21G C64U	0.0287
C21A C33A	0.026
C21A C33U	0.0723
C21A C84G	0.0314
